Results reported in patent US11884710B2, “Peptide compounds and methods of use in wound healing” (priority 2013, dated 2024).

What was measured:
[1] = tested on: mouse corneal epithelium abrasion; assay: In vivo model of corneal wound healing; settings: HB-EGF 250 ng/ml at 0 and 16 hours
Description: (§1) The mouse corneal epithelium was removed using the AlgerBrush II (The Alger Company, Inc., Lago Vista, Tex.), and corneal abrasions were treated at 0 hours and 16 hours with peptide 95-122 (10^−5 M), or were left untreated in 0.9% sodium chloride (saline vehicle) Wound healing was monitored at 0, 16, and 24 hours using fluorescein staining and a camera-equipped inverted microscope. Data are represented as the percentage of wound closure at 16 hours and 24 hours and are expressed as means±SEM. The data are representative of at least 6 mice per group. *P<0.05 by unpaired t-test as compared to vehicle (0.9% sodium chloride) treated controls.
as §1, with “II,” for “II (The Alger Company, Inc., Lago Vista, Tex.),”, “0” for “0 hours”, “120-146WH (10^−8 M or 10^−6” for “95-122 (10^−5”, “vehicle control).” for “vehicle)”, “group. ***P<0.001,” for “group.”
(A) The epithelium of the mouse cornea was removed using the AlgerBrush II, and corneal abrasions were treated at 0 and 16 hours with HB-EGF (250 ng/ml), rCAP37 (250 ng/ml), or vehicle control (normal saline). Wound closure was monitored at 0, 16, 24, and 48 hours using fluorescein staining and a camera-equipped inverted microscope. Data are represented as the percentage of wound closure and are expressed as mean±SEM. The data are representative of at least 6 mice per group. The percentage of wound closure in response to treatment was compared to vehicle-treated controls by unpaired t-test, **P<0.01, *P<0.05. (B) Representative images of mouse corneal wounds are shown at 0, 16, 24, and 48 hours following treatment with vehicle, HB-EGF, and CAP37. Black dotted lines indicate the wound edge.
In vivo model of corneal wound healing: The in vivo model of wound healing was carried out using a disposable biopsy punch (2 mm, Miltex, York, Pa.) to demarcate the mouse cornea and a 0.5 mm burr using the AlgerBrush II (The Alger Company, Inc., Lago Vista, Tex.) to remove the corneal epithelium.
In vivo model of wound healing: Mice were anesthetized using ketamine (100 mg/kg; Bionichepharma, LLC., St. Lake Forrest, Ill.) and xylazine ([…]; Rompun; Bayer Corp., Shawnee Mission, Kans.), and the right cornea was wounded as follows. A disposable biopsy punch (2 mm, Miltex, York, Pa.) was used to demarcate the mouse cornea. The corneal epithelium was carefully removed within the 2 mm demarcated area with a 0.5 mm burr using the AlgerBrush II (The Alger Company, Inc., Lago Vista, Tex.). The corneal abrasions were treated at 0 and 16 hours with HB-EGF (250 ng/ml), rCAP37 (250 ng/ml), or vehicle control (0.9% sodium chloride, pH 5.5, Baxter, Deerfield, Ill.). Corneal abrasions were visualized using sterile fluorescein sodium ophthalmic strips USP (FLUORETS®, Chauvin Laboratory, Aubenas, France) dampened with sterile PBS. […] The areas of the open wound were quantitated using ImageJ software (US National Institutes of Health), and the results were reported as the percentage of wound closure.

HCEC monolayers = assay: In vitro scratch assay of HCEC monolayers; type: cell-based, human; settings: HB-EGF 250 ng/ml
Description: (A) HCECs were grown to confluency and scratched using a 10 μl pipette tip. Scratched HCEC monolayers were treated with HB-EGF (250 ng/ml) or rCAP37 (25-2000 ng/ml), or were left untreated in basal Keratinocyte Serum Free Medium (KSFM). Wound closure was monitored at 0, 18, 24, and 48 hours utilizing a camera-equipped inverted microscope. The histogram represents data acquired at 48 hours, and the values are the mean±SEM of the percentage of wound closure. The data are representative of at least 4 independent experiments. The percentage of wound closure in treated monolayers was compared to untreated controls by one-way analysis of variance (ANOVA) followed by Dunnett's multiple comparison test, **P<0.01, *P<0.05. (B) Representative images of scratched monolayers treated with buffer control, HB-EGF, and rCAP37 (at 25, 100, and 250 ng/ml) are shown for each time point. Images were taken at 20× objective.
In vitro model of wound healing: An in vitro scratch assay was used in order to determine the ability of rCAP37 to facilitate corneal wound healing. Human corneal epithelial cells were cultured as described above until they reached a confluent monolayer. Each monolayer was scratched using a 10 μl pipette tip to create two perpendicular lines. Monolayers were treated with heparin binding-epidermal growth factor (HB-EGF, 250 ng/ml; Becton Dickinson), rCAP37 (25-2000 ng/ml), or basal KSFM (Gibco). Wound closure was monitored at 0, 18, 24, and 48 hours utilizing a camera-equipped inverted microscope (TE2000-E; Nikon, Melville, N.Y.). Time-lapse images of in vitro wound closure were obtained using a camera-equipped inverted microscope (TE2000-E; Nikon) from […]. HCEC monolayers were treated with HB-EGF, rCAP37, and basal KSFM as described above. The width of each scratch was quantitated using ImageJ software (US National Institutes of Health, Bethesda, Md.). Results are presented as the percentage of wound closure.

[2] = tested on: human corneal epithelial cell (HCEC); assay: HCEC chemotaxis, modified Boyden chemotaxis chamber; type: cell-based; settings: HB-EGF 50 ng/ml; positive control
Description: The effect of buffer control (0.1% BSA in Gey's buffer), heparin binding-epidermal growth factor (HB-EGF, 50 ng/ml), recombinant CAP37 (rCAP37, 250 ng/ml), 120-146QH (10^−12M, 10^−10 M, 10^−8 M, 10^−6M, and 10^−4M,) and 120-146QR (10^−10M, 10^−8M, 10^−6M, and 10^−4M) on HCEC chemotaxis was determined by the modified Boyden chemotaxis chamber method. HCEC chemotaxis was measured in response to HB-EGF, rCAP37, and peptides 120-146QH (SEQ ID NO:29) and 120-146QR (SEQ ID NO:28) after incubation for 3 hours at 37° C. Chemotaxis is expressed as a percent migration. The buffer control (no chemoattractant) is arbitrarily assigned the value of 100% migration. Data are expressed as means±SEM and are calculated from 6 observations for each test point. **P<0.01 by Wilcoxon signed-rank test as compared to controls.
Chemotaxis: Chemotaxis assays were performed using the modified Boyden chemotaxis chamber assay. Peptide 120-146QH was used at 10^−4 M, 10^−6 M, 10^−8 M, 10^−10 M, and 10^−12 M, and peptide 120-146QR was used at 10^−4 M, 10^−6 M, 10^−8M, and 10^−10M.

B1: HB-EGF: heparin binding-epidermal growth factor, used as the positive control (protein, UniProt Q99075 63-148, looked up)
Heparin-binding EGF-like …: DLQEADLDLLRVTLSSKPQALATPNKEEHGKRKKKGKGLGKKRDPCLRKYKDFCIHGECKYVKELRAPSCICHPGYHGERCHGLSL
corneal wound closure vs buffer control, in words [1]: significantly higher compared to the buffer control | time to complete closure of scratch wounds (HCEC monolayers; CAP37 250 ng/ml): ≤ 24 h | percentage wound closure (HCEC monolayers; positive control): ~88% | migration of HCECs vs buffer control, in words [2]: significant increase in migration
